In US20250163127A1:

What follows are substances tested against PD-L1 (human) (assay: flow cytometry, CHO cells expressing PD-L1).
Chain of PD-L1 (human) (chain, as listed by the source): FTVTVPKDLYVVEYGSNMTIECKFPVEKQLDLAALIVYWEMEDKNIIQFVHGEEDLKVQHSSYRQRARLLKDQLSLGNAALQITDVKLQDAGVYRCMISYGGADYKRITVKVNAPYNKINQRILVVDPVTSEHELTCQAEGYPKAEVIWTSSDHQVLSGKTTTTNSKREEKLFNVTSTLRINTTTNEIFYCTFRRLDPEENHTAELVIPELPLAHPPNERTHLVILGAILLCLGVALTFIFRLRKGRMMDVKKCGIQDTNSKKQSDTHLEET

Substance	Fold change to WT CD80 [fold]	MFI at 33.3 nM [MFI]
variant CD80 E35D/D46E/M47V/A71D (Fc fusion)	–	549
variant CD80 E35D/D46E/M47V/A71D/D90G (Fc fusion)	–	32400
variant CD80 E35D/D46V/M47L/V68M/L85Q/E88D (Fc fusion)	–	137000
variant CD80 E35D/M38T/D46E/M47V/N48S (Fc fusion)	–	19400
variant CD80 E35D/M43I/M47V/K89N (Fc fusion)	–	19200
variant CD80 E35D/M47I/Y87Q/K89E (Fc fusion)	–	29800
variant CD80 E35D/M47V/A71G (Fc fusion)	–	36200
variant CD80 E35D/M47V/A71G/E88D (Fc fusion)	3.13	37100
variant CD80 E35D/M47V/T62A/A71D/K93E (Fc fusion)	–	693
variant CD80 I30V/E35D/M47V/A71G/A91V (Fc fusion)	–	43900

Other lines, results leading:

Fold change to WT CD80 [fold]	MFI at 33.3 nM [MFI]	Substance
4.49	53400	variant CD80 A26E/E35D/M47L/A71G (Fc fusion)
–	34100	variant CD80 E35D/A71G (Fc fusion)
–	26500	variant CD80 E35D/K37E/M47V/N48D/L85Q/D90N (Fc fusion)
–	21800	variant CD80 E35D/M38T/M43V/M47V/N48R/L85Q (Fc fusion)
–	11900	variant CD80 E35D/M42V/M47V/E52D/L85Q (Fc fusion)
–	35500	variant CD80 E35D/M47V/N48T/L85Q (Fc fusion)
–	44400	variant CD80 E35D/T41S/M43I/M47V/A71G (Fc fusion)
–	52400	variant CD80 H18Y/A26E/E35D/M47L/L85Q/D90G (Fc fusion)
–	21400	variant CD80 Q33R/E35D/M47V/N48K/L85M/F92L (Fc fusion)
–	43800	variant CD80 V22L/Q27H/E35D/M47I/A71G (Fc fusion)

Each substance was assayed against CTLA-4 (human) (assay: flow cytometry, CHO cells expressing CTLA4).
Chain of CTLA-4 (human) (chain, as listed by the source): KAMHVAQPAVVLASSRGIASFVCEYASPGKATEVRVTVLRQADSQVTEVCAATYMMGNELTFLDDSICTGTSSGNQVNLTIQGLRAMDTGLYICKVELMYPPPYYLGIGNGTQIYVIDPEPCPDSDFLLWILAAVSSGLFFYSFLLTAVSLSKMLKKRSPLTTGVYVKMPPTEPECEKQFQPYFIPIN

Substance	MFI at 33.3 nM [MFI]	Fold change to WT CD80 [fold]
variant CD80 E35D/D46E/M47V/A71D/D90G (Fc fusion)	275000	–
variant CD80 E35D/M43I/M47V/K89N (Fc fusion)	278000	–
variant CD80 E35D/M47V/A71G/E88D (Fc fusion)	212000	–
variant CD80 E35D/M47V/T62A/A71D/K93E (Fc fusion)	226000	–
variant CD80 E35D/T41S/M43I/M47L/A71G (Fc fusion)	209000	–
variant CD80 H18Y/E35D/N48K (Fc fusion)	261000	–
variant CD80 I30V/E35D/M47V/A71G/A91V (Fc fusion)	205000	–
variant CD80 V22D/E35D/M47L/L85Q (Fc fusion)	256000	–

Continued, values first:

MFI at 33.3 nM [MFI]	Fold change to WT CD80 [fold]	Substance
341000	–	variant CD80 A26E/E35D/M47L/A71G (Fc fusion)
184000	–	variant CD80 E35D/A71G (Fc fusion)
204000	–	variant CD80 E35D/M38T/M43V/M47V/N48R/L85Q (Fc fusion)
226000	1.44	variant CD80 E35D/M42V/M47V/E52D/L85Q (Fc fusion)
208000	–	variant CD80 E35D/T41S/M43I/A71G/D90G (Fc fusion)
231000	1.47	variant CD80 H18Y/A26E/E35D/M47L/L85Q/D90G (Fc fusion)
2680	–	variant CD80 Q33R/E35D/M47V/N48K/L85M/F92L (Fc fusion)
152000	0.96	variant CD80 V22L/Q27H/E35D/M47I/A71G (Fc fusion)

What follows are substances tested against T1, TIGIT (human) (UniProt Q495A1) (assay: flow cytometry, transfected HEK293 cells).
T1 sequence: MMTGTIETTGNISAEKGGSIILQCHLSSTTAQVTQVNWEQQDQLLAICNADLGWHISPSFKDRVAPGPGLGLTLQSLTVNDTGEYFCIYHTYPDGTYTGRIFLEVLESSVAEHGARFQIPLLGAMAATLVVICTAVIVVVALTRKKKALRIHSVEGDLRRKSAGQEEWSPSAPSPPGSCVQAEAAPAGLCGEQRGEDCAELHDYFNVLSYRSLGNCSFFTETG

MFI at 100 nM	Substance
3140	variant CD155 IgV-Fc, L104E (Fc fusion)
2260	variant CD155 IgV-Fc, S42A, S52L, L104E, G111R (Fc fusion)
4840	variant CD155 IgV-Fc, S42G (Fc fusion)

The substances below were run against T2, CD226 (human) (UniProt Q15762) (assay: flow cytometry, transfected HEK293 cells).
T2 sequence: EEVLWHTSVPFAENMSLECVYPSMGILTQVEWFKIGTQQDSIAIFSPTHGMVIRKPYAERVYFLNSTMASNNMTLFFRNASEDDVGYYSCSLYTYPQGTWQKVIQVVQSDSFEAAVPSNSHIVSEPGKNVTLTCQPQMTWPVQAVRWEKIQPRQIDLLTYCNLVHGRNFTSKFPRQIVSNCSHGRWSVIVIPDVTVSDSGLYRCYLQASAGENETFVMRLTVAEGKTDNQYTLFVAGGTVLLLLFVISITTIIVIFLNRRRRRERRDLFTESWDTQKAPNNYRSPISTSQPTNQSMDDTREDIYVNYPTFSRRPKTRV

MFI at 100 nM	Substance
2260	variant CD155 IgV-Fc, L104E (Fc fusion)
1890	variant CD155 IgV-Fc, S42A, S52L, L104E, G111R (Fc fusion)
2450	variant CD155 IgV-Fc, S42G (Fc fusion)

Each substance was assayed against T3, CD96 (human) (UniProt P40200) (assay: flow cytometry, transfected HEK293 cells).
T3 sequence: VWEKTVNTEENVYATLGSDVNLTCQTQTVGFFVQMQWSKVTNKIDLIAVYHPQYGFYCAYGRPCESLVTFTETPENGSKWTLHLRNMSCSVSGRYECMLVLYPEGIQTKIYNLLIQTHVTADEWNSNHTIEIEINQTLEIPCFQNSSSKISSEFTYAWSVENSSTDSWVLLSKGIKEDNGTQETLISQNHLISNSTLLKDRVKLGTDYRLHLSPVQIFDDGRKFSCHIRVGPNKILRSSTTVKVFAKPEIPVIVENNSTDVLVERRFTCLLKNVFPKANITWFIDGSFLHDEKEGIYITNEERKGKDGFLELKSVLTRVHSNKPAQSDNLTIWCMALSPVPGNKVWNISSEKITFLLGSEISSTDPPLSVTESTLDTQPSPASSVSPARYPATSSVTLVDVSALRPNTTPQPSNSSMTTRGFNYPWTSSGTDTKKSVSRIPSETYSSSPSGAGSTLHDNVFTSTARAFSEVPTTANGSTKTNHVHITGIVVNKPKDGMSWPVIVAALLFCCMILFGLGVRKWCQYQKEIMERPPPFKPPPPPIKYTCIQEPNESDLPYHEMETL

MFI at 100 nM	fold increase to WT ECD [fold]	Substance
1560	0.02	variant CD155 IgV-Fc, L104E (Fc fusion)
1610	0.02	variant CD155 IgV-Fc, S42A, S52L, L104E, G111R (Fc fusion)
1700	0.02	variant CD155 IgV-Fc, S42G (Fc fusion)

These substances were tested against CD112R (human) (UniProt Q6DKI7) (assay: flow cytometry, transfected HEK293 cells).
Chain of CD112R (human) (Q6DKI7 whole entry): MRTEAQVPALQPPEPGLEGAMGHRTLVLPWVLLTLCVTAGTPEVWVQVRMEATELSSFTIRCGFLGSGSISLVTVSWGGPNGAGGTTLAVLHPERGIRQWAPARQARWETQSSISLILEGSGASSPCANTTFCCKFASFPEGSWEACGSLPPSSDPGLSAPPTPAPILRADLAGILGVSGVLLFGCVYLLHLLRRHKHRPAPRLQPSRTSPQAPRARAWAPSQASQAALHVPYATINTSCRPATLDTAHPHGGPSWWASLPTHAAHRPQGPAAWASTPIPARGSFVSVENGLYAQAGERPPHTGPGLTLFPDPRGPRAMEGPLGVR

MFI at 100 nM	fold increase to WT ECD [fold]	Substance
1800	1.01	variant CD155 IgV-Fc, L104E (Fc fusion)
1780	1	variant CD155 IgV-Fc, S42A, S52L, L104E, G111R (Fc fusion)
1820	1.02	variant CD155 IgV-Fc, S42G (Fc fusion)

These substances were tested against CD28 (human) (UniProt P10747) (assay: flow cytometry, Jurkat cells (CD28)).

Substance	Fold change to WT CD80 [fold]	MFI at 33.3 nM [MFI]
variant CD80 E35D/M47I/Y87Q/K89E (Fc fusion)	–	15500
variant CD80 E35D/M47V/A71G (Fc fusion)	–	6360
variant CD80 E35D/M47V/A71G/E88D (Fc fusion)	0.35	6240
variant CD80 E35D/T41S/M43I/M47L/A71G (Fc fusion)	–	3100
variant CD80 V22D/E35D/M47L/L85Q (Fc fusion)	–	542

Continued, values first:

Fold change to WT CD80 [fold]	MFI at 33.3 nM [MFI]	Substance
0.12	2160	variant CD80 A26E/E35D/M47L/A71G (Fc fusion)
0.07	1290	variant CD80 E35D/M42V/M47V/E52D/L85Q (Fc fusion)
–	692	variant CD80 E35D/M47V/N48T/L85Q (Fc fusion)
–	2840	variant CD80 E35D/T41S/M43I/M47V/A71G (Fc fusion)
0.2	3540	variant CD80 H18Y/A26E/E35D/M47L/L85Q/D90G (Fc fusion)
0.4	7270	variant CD80 V22L/Q27H/E35D/M47I/A71G (Fc fusion)
